From a protein production outcome set (Wang et al. 2014) come the findings set out here.

This series in a line: label from the status in PepcDB records.

As to “IRHEITSRTSVSVLVNRCNWFCTSPKCSGLTVMGCLCVAMSVAKKDKPTMSVTALINWARPLPPGQQQQPMTPTSPGNMLQPMATPSNLPTVDCSLDIQWLNLEGGFMSPMSPPEMKPDTAMLDGLRDDSTPPPAFKNYPPNHPLSGSKHLCSICGDRASGKHYGVYSCEGCKGFFKRTVRKDLTYACREERNCIIDKRQRNRCQYCRYQKCLACGMKREAVQEERQRAARGTEDAHPSSSVQVQELSIERLLEMESLVADPSEEFQFLRVGPDSNVPPKFRAPVSSLCQIGNKQIAALVVWARDIPHFSQLEMEDQILLIKGSWNELLLFAIAWRSMEFLTEERDGVDGTGNRTTSPPQLMCLMPGMTLHRNSALQAGVGQIFDRVLSELSLKMRTLRVDQAEYVALKAIILLNPDVKGLKNRQEVEVLREKMFLCLDEYCRRSRSSEEGRFAALLLRLPALRSISLKSFEHLFFFHLVADTSIAGYIRDALRNHAPPIDTNMM”, the protein production entry is listed as “not failed”.

Take “IRQAARGDAERGLGRRRLMQALDGMEAGCALLDGRGSLQEASHGLCRLLGRGRADLLGMNVADVCAPEDLSRLNAALACGGRMQRLRLRLMDGDGRAVDCELVLTPQEESMDGAAWLLQAED”: the protein production result is on record as “failed”. For the sequence “ITSFIRNRDKLTQAEYLLRLAGEKASLGGWRIELDPPVITWTSETAVIHGMPPDYSPPDVGTAVQFYAPEFREFIMEVFERCVQQGEPFDVICQLQVPDGRRPWIRAIGEAERDAQGKVIVVQGAFQDIS”, the protein production entry is recorded as “failed”.

Take “KDAAWLNGWTSYNKVAREIVLAEMANTTILEEGKIVAELRRLLPDKAGLFIGNSMPIRDVDTYFSQIDKKIKMLANRGANGIDGVVSSALGASVVFQPMFLLIGDLSFYHDMNGLLMAKKYKMNLTIVIVNNDGGGIFSFLPQANEPKYFESLFGTSTELDFRFAAAFYDADYHEAKSVDELEEAIDKASYHKGLDIIEVKTNRHENKANHQALWVKIADALKALD”: the protein production entry is “failed”. The entry for “KEGVLCLNTKGQITYANSQALKLLGGSLEELYGKTPQHYFTLENTEGKGMGELLERVLCGESTLQEGSGTLYKKERFLAHVEFTLSPIIDKG” is “failed”; for “KEQILSSEQLARKMMLELGDKKQEHLVAIYMDTQNRIIEQRTIFIGTVRRSVAEPREILHYACKNMATSLIIIHNHPSGSPKPSESDLSFTKKIKRSCDHLGIVCLDHIIVGKNKYYSFREEADIL” it is “not failed”. Consider “KFGELREISGNQYVNEVTNAEKDLWVVIHLYRSSVPMCLVVNQHLSVLARKFPETKFVKAIVNSCIEHYHDNCLPTIFVYKNGQIEGKFIGIIECGGINLKLEELEWKLSEVGAIQSDLEEN”, for which the protein production entry was “not failed”.

On to “KGTLRRITEIAEVSGIEGESIQLNFLYKYDPAKDELIRTEVPSRFIQTLSYHTGLSIEELKWEIEKRRLILDWMIEKGIRRIDEVGYYIKEFYIDEEELLKKIE”, for which the protein production result is “failed”.

Consider “KKKSIPQPTNALKSFNWSKLPENKLEGTVWTEIDDTKVFKILDLEDLERTFSAYQRQQDFFVNSNSKQKEADAIDDTLSSKLKVKELSVIDGRRAQNCNILLSRLKLSNDEIKRAILTMDEQEDLPKDMLEQLLKFVPEKSDIDLLEEHKHELDRMAKADRFLFEMSRINHYQQRLQSLYFKKKFAERVAEVKPKVEAIRSGSEEVFRSGALKQLLEVVLAFGNYMNKGQRGNAYGFKISSLNKIADTKSSIDKNITLLHYLITIVENKYPSVLNLNEELRDIPQAAKVN”, for which the protein production entry is given as “failed”. Under “KKPLSVFKGPLLHISPAEELYFGSIESGEKKTLIVLTNVTKNIVAFKVRTTAPEKYRVKPSNSSCDPGASIDIIVSPHGGLTVSAQDRFLIMAAEMEQSSGTGPAELSQFWKEVPRNKVMEHRLRCHTVESSKPNSLML” stands “not failed”; under “KNASVITVGNEILKGRTVNTNAAFIGNFLTYHGYQVRRGFVVMDDLDEIGWAFRVALEVSDLVVSSGGLGPTFDDMTVEGFAKCIGQDLRIDEDALAMIKKKYGQADLTPQRLKMAKIPPSCRPIENPVGTAPGLICAVGGKKVIILPGVPKEMEALLKAMEKDIIIPD”, “not failed”; under “KNFNPPTRRNWESNYFGMPLQDLVTAEKPIPLFVEKCVEFIEDTGLCTEGLYRVSGNKTDQDNIQKQFDQDHNINLVSMEVTVNAVAGALKAFFADLPDPLIPYSLHPELLEAAKIPDKTERLHALKEIVKKFHPVNYDVFRYVITHLNRVSQQHKINLMTADNLSICFWPTLMRPDFENREFLSTTKIHQSVVETFIQQCQFFFYNGEIVE”, “not failed”.

With “KNIVVDFTEYNPLHNGHKYCMDFGKSEGLFISVIPGPLERSGRGIPYLVNRHIRAEMALLAGADLVVEGPPMGIMGSGQYMQCLIKIFSALNGDIIPRGYIEEETMERVINSINNGNHIKIKPYNISCIETREKLGEKLEIDNYVIASMSYTIYKLKENFPKWNPKFKFIERIEGISGTKIREGVFNNNFESIKHMLPITTIDVFKNFGDNLSEIILKRNEEMVLDTVNNFDLNKYLPENISEKLNEKEYYESIE”, the protein production result is reported as “not failed”. The entry for “KNRIGTKALNFTYTLASGAQGSLYQLKAEYLLLFINNPGCQACTETIEGLKNAPIINQLLQEKKLVLLSIYPDEELDEWKKHLSEFPNEWINGYDKKFTIKEEQVYDLKAIPTLYLLDKDKTVLLKDATAPAIEAYLMQH” is “not failed”; for “KPIPLAVIVVLGCFALGLGGIIGFVHKGEDYQAYQKLQWHTLAPEKIAPLVAQGYTVFVDITSDWCSICQTNKAEVTHREQVVNALMADDIILMQGNWSEADNTIAGYMQYEGIPGTPYNKIYGPRNPNGIVLPSKLTIEAVINGLAQAKAL” it is “failed”; for “KQAEMEVKRESYARERSTVARIQFRLPDGSSFTNQFPSDAPLEEARQFAAQTVGNTYGNFSLATMFPRREFTKEDYKKKLLDLELAPSASVVLLP” it is “failed”. For “KQLLTLKIKCSNQPERQILEKQLPDSMTVQKVKGLLSRLLKVPVSELLLSYESSKMPGREIELENDLQPLQFYSVENGDCLLVR”, the protein production result was “not failed”. The entry for “KREHAKQHGMIRTEITGAEIAEEMEKERRLFQLQMCEYLIKVNEIKTKKGVDLLQNLIKYYHAQCNFFQDGLKTADKLKQYIEKLAADLYNIKQTQDEEKKQLTALRDLIKSSLQLDQKESRRDSQSRQGGYSMHQLQGNKEYGSEKKGYLLKKSDGIRKVWQRRKCSVKNGILTISHATSNRQPAKLNLLTCQVKPNAEDKKSFDLISHNRTYHFQAEDEQDYVAWISVLTNSKEEALTMAFRGEQSAGENSLEDLTKAIIEDVQRLPGNDICCDCGSSEPTWLSTNLGILTCIECSGIHREMGVHISRIQSLELDKLGTSELLLAKNVGNNSFNDIMEANLPSPSPKPTPSSDMTVRKEYITAKYVDHRFSRKTCSTSSAKLNELLEAIKSRDLLALIQVYAEGVELMEPLLEPGQELGETALHLAVRTADQTSLHLVDFLVQNCGNLDKQTALGNTVLHYCSMYSKPECLKLLLRSKPTVDIVNQAGETALDIAKRLKATQCEDLLSQAKSGKFNPHVHVEYEWNLRQEEIDESDDDLDDKPSPIKKERSPRPQSFCHSSSISPQDKLALPGFSTPRDKQRLSYGAFTNQIFVSTSTDSPTSPTTEAPPLPPRNAGKGPTGPPSTLPLSTQTSSGSSTLSKKRPPPPPPGHKRTLSDPPSPLPHGPPNKGAVPWGNDGGPSSSSKTTNKFEGLSQQSSTSSAKTALGPRVLPKLPQKVALRKTDHLSLDKATIPPEIFQKSSQLAELPQKPPPGDLPPKPTELAPKPQIGDLPPKPGELPPKPQLGDLPPKPQLSDLPPKPQMKDLPPKPQLGDLLAKSQTGDVSPKAQQPSEVTLKSHPLDLSPNVQSRDAIQKQASEDSNDLTPTLPETPVPLPRKINTGKNKVRRVKTIYDCQADNDDELTFIEGEVIIVTGEEDQEWWIGHIEGQPERKGVFPVSFVHILSD” is “not failed”; for “KRFESPSVIKPNTLTNQQLIETCDQLIENAVKHHLVADVPVGLYLSGGIDSTLLLSKIRKLGHLNFPTFTIANSSREQAFGTRDFEFARLASKLYNSDHHEVSVHAEMLQDLPAFVSMIDQPIGDSALFLTHILSKEAGQHVRVALNGAGADELFAGYNRHSAYKSYLNNLLHKNLAITLIKSTYNILPDGGNHSLKKVFRLWNKFTGMMDVDPIKTCHNFSSSEYFIEKNTSIEVDDKSYEDLSYYLYYCLRNDRTKYLISDILALTDKMTMRSSIEARVPYLDQELRRFVESLDPSVLLKNGRKWILKEVLLRNGGETFLNRPKEGFGMPFGYWLKLPVNKNFVEKLTNKNHPIYEWVPYQTIKNLVDWHLGSKRDCSSELWSVLLLMHWYEKE” it is “failed”.
